From patent US7129332

Columns and labels:
[1] = biological target: EGFRvIII (mutant epidermal growth factor receptor) on NR6M cells (human) (UniProt P00533); assay: cell-based or functional assay
[2] = biological target: EGFRvIII peptide (…-biotin); assay: SPR (BIAcore), biotinylated peptide on streptavidin chip, immunotoxin injected

Substance: MR1(Fv)-PE38 (from UniProt P11439 278-389; P11439 406-638) (scFv)
- IC50, cytotoxic activity, Experiment 1 [1]: 9.2 ng/mL
- IC50, cytotoxic activity, Experiment 2 [1]: 6.6 ng/mL
- IC50, cytotoxicity (inhibition of [3H]-leucine incorporation) on NR6M cells [1]: 8 ng/mL
- Kd [2]: 8 nM
